# Assay results reported in US9383360B2, “Compositions and methods relating to lyme disease” (The United States of America, as represented by the …, priority 2012, dated 2016).
# T1: Brevican (Homo sapiens, UniProt Q96GW7)
# T1 sequence (Q96GW7 23-911): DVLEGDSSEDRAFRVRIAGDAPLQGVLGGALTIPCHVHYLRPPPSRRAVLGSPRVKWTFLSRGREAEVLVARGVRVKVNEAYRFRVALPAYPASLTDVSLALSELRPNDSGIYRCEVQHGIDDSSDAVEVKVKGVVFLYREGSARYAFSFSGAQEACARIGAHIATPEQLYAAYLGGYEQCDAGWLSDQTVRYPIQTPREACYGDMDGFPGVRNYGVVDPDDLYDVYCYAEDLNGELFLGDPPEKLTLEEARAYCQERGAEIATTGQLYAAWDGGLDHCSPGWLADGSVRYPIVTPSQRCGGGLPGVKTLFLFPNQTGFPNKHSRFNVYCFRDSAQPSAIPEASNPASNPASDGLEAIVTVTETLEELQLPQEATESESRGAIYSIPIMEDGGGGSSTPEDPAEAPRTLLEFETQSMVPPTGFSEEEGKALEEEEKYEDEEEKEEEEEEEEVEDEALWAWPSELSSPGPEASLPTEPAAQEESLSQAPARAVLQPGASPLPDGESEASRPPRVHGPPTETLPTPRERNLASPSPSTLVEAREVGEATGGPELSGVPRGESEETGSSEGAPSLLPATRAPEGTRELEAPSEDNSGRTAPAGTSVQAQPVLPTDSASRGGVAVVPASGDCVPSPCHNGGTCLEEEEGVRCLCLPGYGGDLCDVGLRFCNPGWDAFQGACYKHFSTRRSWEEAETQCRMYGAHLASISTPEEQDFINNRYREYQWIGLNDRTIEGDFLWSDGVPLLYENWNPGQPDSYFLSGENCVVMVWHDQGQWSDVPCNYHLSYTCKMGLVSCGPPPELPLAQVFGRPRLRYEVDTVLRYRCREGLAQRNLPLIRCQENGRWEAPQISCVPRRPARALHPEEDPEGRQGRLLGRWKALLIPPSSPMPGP
# T2: β-casein (Bos taurus, UniProt P02666)
# T2 construct: purchased Bio-Rad
# T2 sequence (P02666 16-224): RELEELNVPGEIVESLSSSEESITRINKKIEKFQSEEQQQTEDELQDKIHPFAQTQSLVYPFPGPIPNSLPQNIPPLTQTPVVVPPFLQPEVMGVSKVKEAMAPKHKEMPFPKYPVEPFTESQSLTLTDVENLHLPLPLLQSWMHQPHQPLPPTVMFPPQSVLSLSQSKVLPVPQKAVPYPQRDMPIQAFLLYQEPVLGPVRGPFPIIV
# B1: BbHtrA: Recombinant wild type B. burgdorferi HtrA serine protease, mature protein amino acids 38-474, expressed in E. coli (SEQ ID NO:1, 9) (protein, listed as Borrelia burgdorferi)
# chain: EEKDNTVRALQDSFREVSKKILPSSVEVHATGVIKQSFPIPFFFFDMPEFDSERKSNWAGSGVIIGRDSQKKSLFYVVTNSHVVDKATELEVVSYDKKKHKAKLIGKDEKKDIALISFESDDATIKVADLGDSDKLEIGDWVMAVGSPFQFSFTVTAGIVSGLQRSANPNLQSRNLFIQTDAAINRGNSGGPLVNIKGEVIGINAWIASNSGGNIGLGFAIPVNNIKSTVDFFLKGKKIESAWLGISFYPLKTRDSEVLKSLGVESNDVSAAIIASLYPGSPAVKSGLRAGDIIMKVNGVSMSVFQDVTSYISDFYAGEKVNVEILRGNVKKNIEIVLAVRPKDKELSSSKMLPGFVVYPLVEDIKAQLNLRNWIKGVVVDYIDKNLASNIKMKSGDVILSVNSKSVSNLREFYDALEVGKNTYKILRGNDSFKITF
# Columns and labels:
# Brevican = molecular target: T1, Brevican; assay: BbHtrA proteolysis assay, brevican substrate; type: biochemical; conditions: SDS-PAGE, FIG. 5
# Method: (§1) For proteolysis assays described in Examples herein, purified protein substrates (200-600 nM) and proteases (100-150 nM) were diluted in assay buffer (50 mM HEPES, pH 7.4, 5 mM CaCl2) and incubated overnight at 37° C. Samples were boiled for 4 minutes to inactivate the proteases. Proteoglycans were deglycosylated by overnight incubation at 37° C. with 0.01 U chondroitinase ABC (Seikagaku). Reactions were stopped by the addition of SDS/PAGE sample buffer, boiled for 4 minutes, and electrophoresed on pre-cast Tris-glycine gels (BioRad). Reaction products were visualized by silver staining.
# (§2) Purified proteins were incubated with BbHtrA or BbHtrA^S226A as described herein. HtrA (also known as DegP) proteases belong to the family of serine proteases which contain a highly reactive serine residue in their active site. This serine (Ser210 in DegP) is part of the canonical His-Ser-Asp catalytic triad and mutation of the catalytic serine abolishes proteolytic activity (Skorko-Glonek et al., 1995). In BbHtrA, residues His119, Ser226 and Asp149 form the catalytic triad and mutation of serine 226 to alanine abolished proteolytic activity as expected (FIG. 5).
# (§3) Reaction products were separated by SDS-PAGE and silver stained. Native collagen II and recombinant tenascin C were not degraded by BbHtrA indicating selectivity for proteoglycans, E-cadherin and fibronectin. […]
# β-casein = molecular target: T2, β-casein; assay: β-casein zymography; type: biochemical; conditions: 1 μg recombinant protein, 12% β-casein zymogram gel, developed 40 h at 37° C., FIG. 12A
# Method: Proteolytic activity was studied by zymography of lysates of the prototype strains of each of the major genospecies of Borrelia that cause Lyme disease. Borrelia burgdorferi (passage 4, non-clonal, infectious strain B31), Borrelia garinii (unknown passage, infectious strain FR-20047) and Borrelia afzelii (unknown passage, infectious strain ACA-1) were grown in Barbour-Stoenner-Kelly media (BSK II) supplemented with 6% rabbit serum at 37° C. Borrelial lysates (˜1×10^8 B. garinii, B. afzelii; ˜5×10^7 B. burgdorferi) and recombinant BbHtrA proteins (1 μg) were subjected to SDS-PAGE electrophoresis using 12% β-casein Zymogram Ready Gels (Bio-Rad). Following electrophoresis, the gels were renatured in 2.5% Triton X-100 (Sigma) for 60 min at 37° C. with a buffer change at 15 min. The gels were developed in Zymogram Development Buffer (BioRad) for 40 h at 37° C. with a buffer change at 15 min. Gels were stained (0.5% Coomassie Brilliant Blue R-250, 40% methanol, 10% glacial acetic acid) for 60 min at room temperature and then destained (40% methanol, 10% glacial acetic acid).
# Versican = Versican (Homo sapiens, UniProt P13611); assay: BbHtrA proteolysis assay, versican substrate; type: biochemical; conditions: SDS-PAGE, FIG. 5
# Method: as §1, §2, §3
# Biglycan = assay: BbHtrA proteolysis assay, biglycan substrate; type: biochemical, bovine, human; conditions: SDS-PAGE, FIG. 5
# Method: as §1, §2, §3
# Tenascin C = Tenascin C (Homo sapiens, UniProt P24821); assay: BbHtrA proteolysis assay, tenascin C substrate; type: biochemical; conditions: SDS-PAGE, silver stain
# Method: as §1, §2, §3
# Collagen type II = molecular target: T3, Collagen type II (Homo sapiens, UniProt P02458); assay: BbHtrA proteolysis assay, collagen type II substrate; type: biochemical; conditions: SDS-PAGE, silver stain
# T3 construct: Native collagen II and recombinant tenascin C were not degraded by BbHtrA; from tissue
# Method: as §1, §2, §3
# Versican, sequence (P13611 21-3396): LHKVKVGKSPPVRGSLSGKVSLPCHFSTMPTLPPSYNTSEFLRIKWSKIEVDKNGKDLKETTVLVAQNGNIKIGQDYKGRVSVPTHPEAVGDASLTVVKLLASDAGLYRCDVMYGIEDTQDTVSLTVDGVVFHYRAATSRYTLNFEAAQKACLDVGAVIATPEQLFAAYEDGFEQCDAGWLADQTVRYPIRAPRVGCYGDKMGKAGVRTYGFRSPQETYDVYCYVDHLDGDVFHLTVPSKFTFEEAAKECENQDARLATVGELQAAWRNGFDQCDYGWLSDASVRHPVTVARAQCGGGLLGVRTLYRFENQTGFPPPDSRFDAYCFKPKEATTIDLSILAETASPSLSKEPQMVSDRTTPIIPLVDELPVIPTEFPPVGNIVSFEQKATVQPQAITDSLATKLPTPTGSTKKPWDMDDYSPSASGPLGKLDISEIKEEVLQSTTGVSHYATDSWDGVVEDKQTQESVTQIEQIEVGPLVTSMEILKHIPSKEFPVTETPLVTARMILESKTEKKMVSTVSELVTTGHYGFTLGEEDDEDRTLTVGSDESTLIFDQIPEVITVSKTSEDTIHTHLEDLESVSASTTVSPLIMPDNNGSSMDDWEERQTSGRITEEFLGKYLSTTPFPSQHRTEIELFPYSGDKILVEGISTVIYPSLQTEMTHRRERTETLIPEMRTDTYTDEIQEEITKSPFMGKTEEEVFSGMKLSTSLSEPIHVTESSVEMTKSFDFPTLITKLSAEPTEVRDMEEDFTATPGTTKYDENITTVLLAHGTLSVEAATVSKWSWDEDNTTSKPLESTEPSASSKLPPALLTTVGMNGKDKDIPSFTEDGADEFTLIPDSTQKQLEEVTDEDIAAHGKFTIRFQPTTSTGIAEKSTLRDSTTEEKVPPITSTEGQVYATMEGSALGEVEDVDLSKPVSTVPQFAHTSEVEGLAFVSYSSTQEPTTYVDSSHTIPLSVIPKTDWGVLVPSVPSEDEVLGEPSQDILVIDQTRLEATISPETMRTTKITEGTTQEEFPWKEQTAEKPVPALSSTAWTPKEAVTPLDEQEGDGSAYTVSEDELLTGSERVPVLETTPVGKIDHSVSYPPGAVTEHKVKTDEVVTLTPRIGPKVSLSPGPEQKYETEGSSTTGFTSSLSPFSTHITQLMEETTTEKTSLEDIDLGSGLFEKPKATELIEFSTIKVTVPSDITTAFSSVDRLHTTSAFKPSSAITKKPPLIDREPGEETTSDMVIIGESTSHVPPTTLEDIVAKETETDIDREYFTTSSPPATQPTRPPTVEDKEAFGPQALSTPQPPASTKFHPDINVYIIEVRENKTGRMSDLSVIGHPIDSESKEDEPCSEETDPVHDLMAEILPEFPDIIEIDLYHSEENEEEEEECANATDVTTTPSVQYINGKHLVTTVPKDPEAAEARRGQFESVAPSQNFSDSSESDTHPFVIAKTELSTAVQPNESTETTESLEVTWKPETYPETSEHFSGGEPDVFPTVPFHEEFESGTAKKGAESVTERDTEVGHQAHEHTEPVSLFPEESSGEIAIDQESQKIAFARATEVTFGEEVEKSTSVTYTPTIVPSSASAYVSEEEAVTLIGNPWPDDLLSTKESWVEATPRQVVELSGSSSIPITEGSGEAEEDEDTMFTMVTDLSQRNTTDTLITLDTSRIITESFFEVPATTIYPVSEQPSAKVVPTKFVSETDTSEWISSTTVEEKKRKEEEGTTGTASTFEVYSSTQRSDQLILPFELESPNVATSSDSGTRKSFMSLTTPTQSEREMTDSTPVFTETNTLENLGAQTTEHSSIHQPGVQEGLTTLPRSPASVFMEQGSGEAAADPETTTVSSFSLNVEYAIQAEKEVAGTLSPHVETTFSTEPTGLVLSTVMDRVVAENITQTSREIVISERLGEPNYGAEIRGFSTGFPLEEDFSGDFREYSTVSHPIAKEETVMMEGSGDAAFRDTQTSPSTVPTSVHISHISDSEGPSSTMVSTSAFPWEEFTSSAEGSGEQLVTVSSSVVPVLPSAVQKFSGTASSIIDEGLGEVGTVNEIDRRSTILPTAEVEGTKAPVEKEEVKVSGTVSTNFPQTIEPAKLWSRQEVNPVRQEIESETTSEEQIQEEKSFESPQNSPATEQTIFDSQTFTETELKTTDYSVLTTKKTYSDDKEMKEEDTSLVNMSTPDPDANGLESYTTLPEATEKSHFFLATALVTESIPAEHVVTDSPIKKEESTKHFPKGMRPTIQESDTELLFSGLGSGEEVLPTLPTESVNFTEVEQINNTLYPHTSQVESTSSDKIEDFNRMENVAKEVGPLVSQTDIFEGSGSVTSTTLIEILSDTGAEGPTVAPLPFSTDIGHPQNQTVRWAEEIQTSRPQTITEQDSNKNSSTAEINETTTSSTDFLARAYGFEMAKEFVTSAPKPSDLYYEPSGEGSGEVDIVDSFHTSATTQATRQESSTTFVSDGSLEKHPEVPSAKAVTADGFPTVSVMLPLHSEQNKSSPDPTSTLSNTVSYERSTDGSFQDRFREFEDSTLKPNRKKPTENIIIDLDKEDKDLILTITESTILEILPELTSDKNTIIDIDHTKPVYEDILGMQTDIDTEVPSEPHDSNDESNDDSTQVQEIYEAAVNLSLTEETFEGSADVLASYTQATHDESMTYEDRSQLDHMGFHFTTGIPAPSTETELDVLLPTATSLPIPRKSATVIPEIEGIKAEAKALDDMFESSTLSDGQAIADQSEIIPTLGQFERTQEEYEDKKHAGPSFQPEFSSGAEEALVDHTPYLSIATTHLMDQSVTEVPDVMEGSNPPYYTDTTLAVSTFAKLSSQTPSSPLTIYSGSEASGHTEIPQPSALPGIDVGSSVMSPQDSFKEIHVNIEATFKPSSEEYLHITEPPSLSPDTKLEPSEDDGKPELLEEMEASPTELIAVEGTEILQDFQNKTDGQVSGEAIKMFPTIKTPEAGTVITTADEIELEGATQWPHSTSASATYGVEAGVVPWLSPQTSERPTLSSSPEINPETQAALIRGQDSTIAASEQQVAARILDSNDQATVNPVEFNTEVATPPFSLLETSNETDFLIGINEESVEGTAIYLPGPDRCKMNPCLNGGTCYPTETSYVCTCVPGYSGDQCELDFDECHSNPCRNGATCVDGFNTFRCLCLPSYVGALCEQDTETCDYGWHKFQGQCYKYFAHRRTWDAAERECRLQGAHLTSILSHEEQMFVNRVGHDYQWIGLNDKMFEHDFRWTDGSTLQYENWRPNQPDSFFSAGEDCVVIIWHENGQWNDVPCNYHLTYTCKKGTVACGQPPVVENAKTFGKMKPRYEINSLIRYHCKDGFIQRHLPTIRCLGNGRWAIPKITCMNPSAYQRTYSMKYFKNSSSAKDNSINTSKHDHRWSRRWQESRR
# T3 sequence (P02458 182-1241 limits assumed): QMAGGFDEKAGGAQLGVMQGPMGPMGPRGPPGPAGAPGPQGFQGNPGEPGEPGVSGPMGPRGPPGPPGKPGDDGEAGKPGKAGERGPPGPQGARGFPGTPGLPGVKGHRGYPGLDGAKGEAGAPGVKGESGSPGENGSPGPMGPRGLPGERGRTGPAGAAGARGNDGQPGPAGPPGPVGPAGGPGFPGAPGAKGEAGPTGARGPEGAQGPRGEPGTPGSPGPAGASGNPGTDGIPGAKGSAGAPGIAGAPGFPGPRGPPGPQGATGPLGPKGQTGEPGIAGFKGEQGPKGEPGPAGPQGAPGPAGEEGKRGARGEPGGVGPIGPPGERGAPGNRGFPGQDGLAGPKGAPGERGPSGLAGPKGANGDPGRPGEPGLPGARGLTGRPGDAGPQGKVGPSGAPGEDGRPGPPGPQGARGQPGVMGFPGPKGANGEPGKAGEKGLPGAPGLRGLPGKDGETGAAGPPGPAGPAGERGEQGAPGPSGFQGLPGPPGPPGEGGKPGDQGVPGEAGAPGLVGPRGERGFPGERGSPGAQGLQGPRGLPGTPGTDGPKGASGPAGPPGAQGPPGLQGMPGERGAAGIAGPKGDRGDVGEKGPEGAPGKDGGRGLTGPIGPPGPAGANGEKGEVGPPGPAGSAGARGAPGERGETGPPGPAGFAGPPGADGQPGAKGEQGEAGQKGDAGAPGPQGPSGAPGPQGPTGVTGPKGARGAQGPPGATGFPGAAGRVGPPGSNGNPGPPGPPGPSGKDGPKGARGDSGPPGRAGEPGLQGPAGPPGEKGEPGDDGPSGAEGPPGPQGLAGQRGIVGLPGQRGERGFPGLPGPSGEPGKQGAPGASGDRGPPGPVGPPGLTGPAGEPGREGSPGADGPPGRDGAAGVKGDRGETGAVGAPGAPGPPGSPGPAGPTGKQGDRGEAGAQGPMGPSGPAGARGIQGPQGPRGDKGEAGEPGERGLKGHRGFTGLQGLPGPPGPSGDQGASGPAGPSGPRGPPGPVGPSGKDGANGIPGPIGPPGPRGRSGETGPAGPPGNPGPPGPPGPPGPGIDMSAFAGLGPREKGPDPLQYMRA
molecule,measurement,setting,value
B1,Degradation of brevican,Brevican,degrades
same,Proteolytic activity against β-casein (clearing around the protein band),β-casein,proteolytically active
same,Degradation of versican,Versican,degrades
same,Degradation of biglycan,Biglycan,degrades
same,Degradation of recombinant tenascin C,Tenascin C,not degraded
same,Degradation of native collagen II,Collagen type II,not degraded
